How the values were obtained:
[1] = target: T1, humanized FGFR1c/humanized betaKlotho (hβKlotho)-expressing cells (Homo sapiens, UniProt P11362+Q86Z14); test: DNA synthesis in humanized FGFR1c/humanized betaKlotho-expressing BaF3 cells; format: cell-based; settings: humanized FGFR1c and humanized betaKlotho; 10 μg/ml heparin
T1 construct: expressed in transfected cells; host or cells: BaF3 (mouse pro-B) cells; pSRalpha (FGFR1c), pcDNA3.1 (betaKlotho)
From the text: In Examples 4, 5, 6, and 7, it was shown that FGF21 reacts with FGFR1c in the presence of betaKlotho. FGFR1c, betaKlotho, FGF21, and the like, which were used in an actual experimental system, were all derived from mice used as typical mammalian models. With regard to these molecules, the homology between a human and a mouse at the amino acid sequence level is extremely high (80% in FGF21, 78% in betaKlotho, and 98% in FGFR1). As a result, naturally, there are no problems regarding the compatibility of the human with the mouse, and thus it is clear that the same results as those from a murine molecule will be obtained even using a humanized molecule. In the present example, as a precautionary measure, an experimental system using a humanized molecule was constructed to confirm such respect, and an experiment was carried out. Specifically, the humanized cDNA of FGFR1c and that of betaKlotho were prepared from a commercially available human RNA sample (Takara Bio Inc.) by PCR. FGFR1c was introduced into an expression vector having an SRalpha promoter (pSRalpha), and betaKlotho was introduced into an expression vector having a CMV promoter (pcDNA3.1; Invitrogen). […] In the presence of heparin, humanized FGF21 was added in various types of concentrations to FGFR1c-expressing cells or FGFR1c/betaKlotho-co-expressing cells, and the amount of DNA synthesized was then measured.

[2] = target: T2, FGFR1c-expressing BaF3 cells (Mus musculus, UniProt P16092); test: DNA synthesis (thymidine incorporation) in BaF3 cells expressing only FGFR1c; format: cell-based; settings: BaF3 cells expressing FGFR1c but not betaKlotho
T2 construct: the entire-length cDNA of mouse FGFR1c had been cloned; expressed in transfected cells; host or cells: BaF3 (mouse pro-B) cells
Experimental: A commonly used measurement method is a cell growth stimulating activity measurement method described in Ornitz, D. M., Xu, J., Colvin, J. S., McEwen, D. G., MacArthur, C. A., Coulier, F., Gao, G. and Goldfarb, M. (1996) Receptor specificity of the fibroblast growth factor family. J Biol Chem, 271, 15292-15297. The summary thereof is as follows. FGF used as a measurement target is added to a culture solution containing a cultured cell having an FGF receptor on the surface thereof, and the obtained mixture is cultured for a certain period of time. Thereafter, a labeled thymidine is added to the culture solution, followed by further culture for a certain period of time. By measuring the amount of the labeled thymidine incorporated into polymeric DNA during the culture, the degree of FGF to activate DNA synthesis is evaluated. (In the present invention as well, this method was adopted when the activity of FGF21 was measured in Examples 4, 5, 6, 8, 9, and 10.) […]
Immediately after inoculation, BaF3 cells that had expressed each clone and only FGFR1c were stimulated by addition of FGF21 (open bar) or PBS (filled bar) used as a control in the presence of heparin, and they were then cultured for 42 hours. […] Thereafter, the amount of thymidine incorporated into the cells was measured, so as to evaluate DNA synthesis. […]

T1 sequence (P11362 22-822): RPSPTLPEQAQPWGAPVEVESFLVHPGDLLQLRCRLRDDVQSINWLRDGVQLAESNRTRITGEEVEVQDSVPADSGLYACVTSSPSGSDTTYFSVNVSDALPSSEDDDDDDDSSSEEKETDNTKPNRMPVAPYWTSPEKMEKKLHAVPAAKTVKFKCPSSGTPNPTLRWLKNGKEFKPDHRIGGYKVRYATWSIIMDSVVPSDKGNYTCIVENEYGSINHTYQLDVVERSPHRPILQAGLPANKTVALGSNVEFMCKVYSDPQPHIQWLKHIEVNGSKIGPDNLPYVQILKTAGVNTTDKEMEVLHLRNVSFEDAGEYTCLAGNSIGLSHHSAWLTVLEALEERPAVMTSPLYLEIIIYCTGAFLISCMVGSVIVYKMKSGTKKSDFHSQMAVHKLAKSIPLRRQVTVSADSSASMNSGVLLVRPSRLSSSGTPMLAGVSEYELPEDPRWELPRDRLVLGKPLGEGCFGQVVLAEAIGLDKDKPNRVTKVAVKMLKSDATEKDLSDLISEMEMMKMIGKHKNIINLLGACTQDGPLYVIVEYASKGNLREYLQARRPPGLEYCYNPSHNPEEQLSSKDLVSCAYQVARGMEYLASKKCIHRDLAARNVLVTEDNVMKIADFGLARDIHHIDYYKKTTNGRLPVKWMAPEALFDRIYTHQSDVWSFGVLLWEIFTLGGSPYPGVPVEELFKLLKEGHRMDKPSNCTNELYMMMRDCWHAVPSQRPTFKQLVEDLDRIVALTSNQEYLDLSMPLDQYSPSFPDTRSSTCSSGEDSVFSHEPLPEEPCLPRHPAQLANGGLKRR
T1 sequence (Q86Z14 whole entry): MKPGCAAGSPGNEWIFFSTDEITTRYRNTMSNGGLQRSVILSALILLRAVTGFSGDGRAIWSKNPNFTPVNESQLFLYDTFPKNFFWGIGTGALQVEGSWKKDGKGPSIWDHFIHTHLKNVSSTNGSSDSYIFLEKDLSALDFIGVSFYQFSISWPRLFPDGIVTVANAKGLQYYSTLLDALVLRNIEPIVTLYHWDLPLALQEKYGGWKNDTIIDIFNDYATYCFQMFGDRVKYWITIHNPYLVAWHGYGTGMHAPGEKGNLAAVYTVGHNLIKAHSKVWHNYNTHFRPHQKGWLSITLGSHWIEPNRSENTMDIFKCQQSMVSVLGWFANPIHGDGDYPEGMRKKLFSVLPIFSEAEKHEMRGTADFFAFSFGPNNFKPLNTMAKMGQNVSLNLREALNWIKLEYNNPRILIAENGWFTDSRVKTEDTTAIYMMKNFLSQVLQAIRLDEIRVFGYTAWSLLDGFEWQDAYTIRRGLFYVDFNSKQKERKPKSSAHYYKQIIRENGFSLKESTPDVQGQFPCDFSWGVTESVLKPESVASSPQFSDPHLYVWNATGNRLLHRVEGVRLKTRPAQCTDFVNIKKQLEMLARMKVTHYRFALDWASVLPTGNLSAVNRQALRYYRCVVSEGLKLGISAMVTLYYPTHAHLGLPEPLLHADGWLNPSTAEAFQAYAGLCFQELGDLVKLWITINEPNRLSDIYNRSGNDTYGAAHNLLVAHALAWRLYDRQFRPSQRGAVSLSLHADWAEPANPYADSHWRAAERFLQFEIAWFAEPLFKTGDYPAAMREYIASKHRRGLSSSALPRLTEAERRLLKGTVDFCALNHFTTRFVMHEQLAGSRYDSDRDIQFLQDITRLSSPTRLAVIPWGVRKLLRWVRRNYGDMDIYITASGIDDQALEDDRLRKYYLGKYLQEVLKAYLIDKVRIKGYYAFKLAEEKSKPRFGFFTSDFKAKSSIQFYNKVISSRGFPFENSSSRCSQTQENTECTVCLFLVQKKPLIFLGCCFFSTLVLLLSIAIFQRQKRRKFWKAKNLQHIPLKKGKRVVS
T2 sequence (P16092 22-822): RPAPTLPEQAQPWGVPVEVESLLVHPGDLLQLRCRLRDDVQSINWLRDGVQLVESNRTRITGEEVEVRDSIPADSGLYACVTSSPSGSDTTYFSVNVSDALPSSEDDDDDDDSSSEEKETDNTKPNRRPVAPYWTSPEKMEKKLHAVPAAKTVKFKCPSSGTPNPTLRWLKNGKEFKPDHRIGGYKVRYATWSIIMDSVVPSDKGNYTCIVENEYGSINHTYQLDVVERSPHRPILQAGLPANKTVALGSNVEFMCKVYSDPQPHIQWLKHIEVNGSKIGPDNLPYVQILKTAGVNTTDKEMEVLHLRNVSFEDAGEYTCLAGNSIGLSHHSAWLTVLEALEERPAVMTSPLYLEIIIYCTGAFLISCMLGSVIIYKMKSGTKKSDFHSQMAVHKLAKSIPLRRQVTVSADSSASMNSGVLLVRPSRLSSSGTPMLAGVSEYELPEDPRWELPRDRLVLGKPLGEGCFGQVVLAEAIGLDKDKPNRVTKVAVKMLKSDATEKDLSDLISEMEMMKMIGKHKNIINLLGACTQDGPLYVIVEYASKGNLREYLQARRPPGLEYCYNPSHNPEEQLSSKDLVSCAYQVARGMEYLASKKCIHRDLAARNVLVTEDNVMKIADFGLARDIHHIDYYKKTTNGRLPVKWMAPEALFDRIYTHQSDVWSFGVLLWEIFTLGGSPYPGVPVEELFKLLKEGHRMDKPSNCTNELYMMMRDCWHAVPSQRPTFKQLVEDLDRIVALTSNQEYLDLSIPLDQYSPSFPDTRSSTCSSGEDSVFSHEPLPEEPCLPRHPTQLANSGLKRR

Molecule: FGF1: conventional FGF used as a control
- amount of DNA synthesized (thymidine incorporation) [1]: promoted the DNA synthesis

B1: FGF21: fibroblast growth factor 21; mouse-derived protein used in Examples 1-7 and 10-13 (protein)
chain: AYPIPDSSPLLQFGGQVRQRYLYTDDDQDTEAHLEIREDGTVVGAAHRSPESLLELKALKPGVIQILGVKASRFLCQQPDGALYGSPHFDPEACSFRELLLEDGYNVYQSEAHGLPLRLPQKDSPNQDATSWGPVRFLPMPGLLHEPQDQAGFLPPEPPDVGSSDPLSMVEPLQGRSPSYAS
- DNA synthesis (thymidine incorporated into the cells) [2]: did not react with FGF21

— patent US8697369B2, “Method for screening a test substance for activating a receptor associated with FGF 21 activity” (National Institute of Advanced Industrial Science and …, priority 2007, dated 2014)
